In article PMC3032553, “Structural Basis for c-di-GMP-Mediated Inside-Out Signaling Controlling Periplasmic Proteolysis” (PLoS Biology, 2011):
Numbering of substitutions follows the chain as printed. Numbers in names are those of the source. One block for each molecule: values may come before it.

Tests used:
LapD^dual [1] = target: T1, LapD^dual (Pseudomonas fluorescens, UniProt Q3KK31, A602E); test: radioligand filter binding, one-site fit; details: read-out: Apparent K d
T1 construct: cytoplasmic S helix-GGDEF-EAL dual domain module, residues 220-648, lacks HAMP; purified; apo monomer, dimerizes with c-di-GMP
T1 sequence (Q3KK31 220-648 A602E): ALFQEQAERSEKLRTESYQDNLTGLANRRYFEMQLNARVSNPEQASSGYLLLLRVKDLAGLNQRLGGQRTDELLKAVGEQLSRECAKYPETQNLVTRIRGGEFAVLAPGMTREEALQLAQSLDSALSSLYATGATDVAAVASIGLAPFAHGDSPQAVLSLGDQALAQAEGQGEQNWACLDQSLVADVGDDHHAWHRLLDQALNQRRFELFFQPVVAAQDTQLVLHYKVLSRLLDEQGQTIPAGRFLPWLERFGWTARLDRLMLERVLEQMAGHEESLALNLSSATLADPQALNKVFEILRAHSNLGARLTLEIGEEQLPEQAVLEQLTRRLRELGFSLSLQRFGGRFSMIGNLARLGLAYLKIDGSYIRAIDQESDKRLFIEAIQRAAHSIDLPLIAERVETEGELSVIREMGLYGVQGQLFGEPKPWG
From the text: (§1) radioligand filter binding, one-site fit on LapD^dual

LapD^dual [2] = target: T2, LapD^dual (Pseudomonas fluorescens, UniProt Q3KK31); test: radioligand filter binding, one-site fit; details: read-out: Apparent K d
T2 construct: cytoplasmic S helix-GGDEF-EAL dual domain module, residues 220-648, lacks HAMP; purified; apo monomer, dimerizes with c-di-GMP
T2 sequence (Q3KK31 220-648): T1 sequence (Q3KK31 220-648 A602E)
From the text: as §1

LapD^dual [3] = target: T3, LapD^dual (Pseudomonas fluorescens, UniProt Q3KK31, A602E/S229D); test: radioligand filter binding, one-site fit; details: read-out: Apparent K d
T3 construct: cytoplasmic S helix-GGDEF-EAL dual domain module, residues 220-648, lacks HAMP; purified; apo monomer, dimerizes with c-di-GMP
T3 sequence (Q3KK31 220-648 S229D/A602E): T1 sequence (Q3KK31 220-648 A602E)
From the text: as §1

LapD^dual [4] = target: T4, LapD^dual (Pseudomonas fluorescens, UniProt Q3KK31, E262A); test: radioligand filter binding, one-site fit; details: read-out: Apparent K d
T4 construct: cytoplasmic S helix-GGDEF-EAL dual domain module, residues 220-648, lacks HAMP; purified; apo monomer, dimerizes with c-di-GMP
T4 sequence (Q3KK31 220-648 E262A): T1 sequence (Q3KK31 220-648 A602E)
From the text: as §1

LapD^dual [5] = target: T5, LapD^dual (Pseudomonas fluorescens, UniProt Q3KK31, S229D); test: radioligand filter binding, one-site fit; details: read-out: Apparent K d
T5 construct: cytoplasmic S helix-GGDEF-EAL dual domain module, residues 220-648, lacks HAMP; purified; apo monomer, dimerizes with c-di-GMP
T5 sequence (Q3KK31 220-648 S229D): T1 sequence (Q3KK31 220-648 A602E)
From the text: as §1

LapD^EAL = target: T6, LapD^EAL (Pseudomonas fluorescens, UniProt Q3KK31, A602E); test: radioligand filter binding, one-site fit; details: read-out: Apparent K d
T6 construct: isolated degenerate EAL domain, residues 399-648; purified; dimer with c-di-GMP
T6 sequence (Q3KK31 399-648 A602E): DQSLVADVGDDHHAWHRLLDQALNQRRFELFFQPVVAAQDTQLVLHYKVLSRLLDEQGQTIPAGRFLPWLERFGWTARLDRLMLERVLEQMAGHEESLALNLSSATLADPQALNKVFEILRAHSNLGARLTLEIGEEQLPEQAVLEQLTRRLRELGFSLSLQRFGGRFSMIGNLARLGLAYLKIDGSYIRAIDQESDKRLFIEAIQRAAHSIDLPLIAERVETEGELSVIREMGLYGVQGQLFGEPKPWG
From the text: radioligand filter binding, one-site fit on LapD^EAL

[6] = target: the molecule itself; test: AUC; sedimentation equilibrium, no c-di-GMP; 1x, 2x, 4x dilutions of ~12 µM protein; 25 mM Tris pH 7.5, 150 mM NaCl; 20°C; 10,000, 14,000 and 20,000 rpm, global fit; monomer:dimer equilibrium
[7] = target: the molecule itself; test: AUC; sedimentation equilibrium with 20 µM c-di-GMP; 1x, 2x, 4x dilutions of ~12 µM protein; 25 mM Tris pH 7.5, 150 mM NaCl; 20°C; global fit with dinucleotide binding and dimerization of the c-di-GMP-bound form; monomer:dimer equilibrium
[8] = target: the molecule itself; test: SEC-MALS; protein incubated with 500 µM c-di-GMP for 30 min at room temperature before SEC, no c-di-GMP in the mobile phase; 20-320 µM injected protein; 25 mM Tris-HCl pH 8.4, 250 mM NaCl; 25°C
His6-tagged LapG = target: T7, His6-tagged LapG (P. fluorescens); test: pull-down; His6-LapG bound to NiNTA resin, untagged LapD output domain variants added, 1 h at 4°C; 25 mM Tris-HCl pH 8.4, 75 mM NaCl, 25 mM KCl, 40 mM imidazole; eluates on SDS-PAGE (Coomassie; SYPRO Ruby for quantification); details: both partners purified
T7 chain: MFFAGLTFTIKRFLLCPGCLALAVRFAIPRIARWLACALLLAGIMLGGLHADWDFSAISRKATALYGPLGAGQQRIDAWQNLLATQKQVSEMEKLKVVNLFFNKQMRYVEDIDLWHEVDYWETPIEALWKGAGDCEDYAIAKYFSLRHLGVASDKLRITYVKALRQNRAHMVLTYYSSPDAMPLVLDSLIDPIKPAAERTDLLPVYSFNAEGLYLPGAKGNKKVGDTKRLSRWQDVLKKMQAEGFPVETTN

[9] = target: the molecule itself; test: crystal structure; LapD^output, selenomethionine-derivatized, 1.8 Å, two molecules per asymmetric unit

Molecule: Nc1nc2c(ncn2[C@@H]2O[C@@H]3CO[P@](=O)(O)O[C@H]4[C@@H](O)[C@H](n5cnc6c(=O)[nH]c(N)nc65)O[C@@H]4CO[P@](=O)(O)O[C@H]3[C@H]2O)c(=O)[nH]1 [c-di-GMP]
- Kd (LapD^dual [1]): > 1000 µM
- Kd (LapD^dual [2]): 27 ± 4.7 µM
- Kd (LapD^dual [3]): > 1000 µM
- Kd (LapD^dual [4]): 15.3 ± 1.7 µM
- Kd (LapD^dual [5]): 15.1 ± 1.8 µM
- Kd (LapD^EAL): 36.3 ± 5.4 µM

B1: LapD^dual S229D (domain or fragment, P. fluorescens Pf0-1, UniProt Q3KK31 220-648, looked up)
chain: T1 sequence (Q3KK31 220-648 A602E) with S10D
notes: LapD, P. fluorescens Pf0-1, residues 220-648, mutation S229D in the S helix; also called S helix-EAL interface mutant; source: produced following standard molecular biology and liquid chromatography techniques, purified (protocols in Text S1)
- Kd [6]: 420 µM
- Kd [7]: 0.18 µM

B2: LapD^dual E262A (domain or fragment, P. fluorescens Pf0-1, UniProt Q3KK31 220-648, looked up)
chain: T1 sequence (Q3KK31 220-648 A602E) with E43A
notes: LapD, P. fluorescens Pf0-1, residues 220-648, mutation E262A in the GGDEF domain; also called GGDEF-EAL interface mutant; source: produced following standard molecular biology and liquid chromatography techniques, purified (protocols in Text S1)
- binding result [8]: binds

B3: LapD^dual, wild-type (dual GGDEF-EAL domain module of LapD, residues 220-648) (domain or fragment, P. fluorescens Pf0-1, UniProt Q3KK31 220-648, looked up)
chain: T1 sequence (Q3KK31 220-648 A602E)
notes: LapD, P. fluorescens Pf0-1, residues 220-648 (S helix, degenerate GGDEF and EAL domains); also called apo-LapD^dual; intracellular module of LapD; source: produced following standard molecular biology and liquid chromatography techniques, purified (protocols in Text S1)
- Kd [6]: 400 µM
- Kd [7]: 0.67 µM

- stoichiometry N (His6-tagged LapG): 2 LapG molecules per output domain dimer
B4: LapD^output, wild-type (periplasmic output domain of LapD, residues 22-151) (domain or fragment, P. fluorescens Pf0-1, UniProt Q3KK31 22-151, looked up)
chain: SFMVSLESSRTQYVNQLRSHAQDAATALALSLTPNIDDPAMVELLVSSIFDSGYYSSIRVVDLKTDQTIVERNGIPAVTNVPDWFVKLIGLEPAGGDALVSRGWEQAARVEVVSHPMFALAKLWQSALGS
notes: LapD, P. fluorescens Pf0-1, residues 22-151 (periplasmic output domain); untagged in the pull-down; domain-swapped dimer in the crystal; The crystals were grown with selenomethionine-derivatized protein; the final model spans residues 23-150; also called periplasmic domain of LapD; source: produced following standard molecular biology and liquid chromatography techniques, purified (protocols in …)
- binding result [9]: binds

B5: LapD^EAL, wild-type (EAL domain of LapD, residues 399-648) (domain or fragment, P. fluorescens Pf0-1, UniProt Q3KK31 399-648, looked up)
chain: T6 sequence (Q3KK31 399-648 A602E)
notes: LapD, P. fluorescens Pf0-1, residues 399-648 (degenerate EAL domain); also called isolated EAL domain; LapD^EAL•c-di-GMP; source: produced following standard molecular biology and liquid chromatography techniques, purified (protocols in Text S1)
- binding result [8]: binds
